Data from publication PMC11106242, “Homozygous EPRS1 missense variant causing hypomyelinating leukodystrophy-15 alters variant-distal mRNA m^6A site accessibility” (Nature Communications, 2024).

Biological target: the molecule itself
Experiment: SEC; Superdex 200 size-exclusion column pre-calibrated with Bio-Rad gel-filtration standards, in purification buffer (50 mM Tris-HCl pH 8.0, 100 mM NaCl, 10% glycerol); monomer to dimer

Protein | stoichiometry N
Wild-type ProRS fragment of human EPRS1 (aa 930-1512) (domain or fragment, UniProt P07814 930-1512, looked up, ProRS fragment of human EPRS1 (glutamyl-prolyl-tRNA synthetase), aa 930-1512, subcloned in pTRC-HisB; also called recombinant WT ProRS; ProRS domain; source: E. coli BL21 Codon-plus (DE3)RIPL, purified (HisTrap HP column)) IAVQELLQLKAQYKSLIGVEYKPVSATGAEDKDKKKKEKENKSEKQNKPQKQNDGQRKDPSKNQGGGLSSSGAGEGQGPKKQTRLGLEAKKEENLADWYSQVITKSEMIEYHDISGCYILRPWAYAIWEAIKDFFDAEIKKLGVENCYFPMFVSQSALEKEKTHVADFAPEVAWVTRSGKTELAEPIAIRPTSETVMYPAYAKWVQSHRDLPIKLNQWCNVVRWEFKHPQPFLRTREFLWQEGHSAFATMEEAAEEVLQILDLYAQVYEELLAIPVVKGRKTEKEKFAGGDYTTTIEAFISASGRAIQGGTSHHLGQNFSKMFEIVFEDPKIPGEKQFAYQNSWGLTTRTIGVMTMVHGDNMGLVLPPRVACVQVVIIPCGITNALSEEDKEALIAKCNDYRRRLLSVNIRVRADLRDNYSPGWKFNHWELKGVPIRLEVGPRDMKSCQFVAVRRDTGEKLTVAENEAETKLQAILEDIQVTLFTRASEDLKTHMVVANTMEDFQKILDSGKIVQIPFCGEIDCEDWIKKTTARDQDLEPGAPSMGAKSLCIPFKPLCELQPGAKCVCGKNPAKYYTLFGRSY | 2
P1482T mutant ProRS fragment of human EPRS1 (aa 930-1512) (domain or fragment, UniProt P07814 930-1512, looked up, The substitution is a natural patient variant; also called Pro1482Thr ProRS; P1482T ProRS; source: E. coli BL21 Codon-plus (DE3)RIPL, purified (HisTrap HP column)) IAVQELLQLKAQYKSLIGVEYKPVSATGAEDKDKKKKEKENKSEKQNKPQKQNDGQRKDPSKNQGGGLSSSGAGEGQGPKKQTRLGLEAKKEENLADWYSQVITKSEMIEYHDISGCYILRPWAYAIWEAIKDFFDAEIKKLGVENCYFPMFVSQSALEKEKTHVADFAPEVAWVTRSGKTELAEPIAIRPTSETVMYPAYAKWVQSHRDLPIKLNQWCNVVRWEFKHPQPFLRTREFLWQEGHSAFATMEEAAEEVLQILDLYAQVYEELLAIPVVKGRKTEKEKFAGGDYTTTIEAFISASGRAIQGGTSHHLGQNFSKMFEIVFEDPKIPGEKQFAYQNSWGLTTRTIGVMTMVHGDNMGLVLPPRVACVQVVIIPCGITNALSEEDKEALIAKCNDYRRRLLSVNIRVRADLRDNYSPGWKFNHWELKGVPIRLEVGPRDMKSCQFVAVRRDTGEKLTVAENEAETKLQAILEDIQVTLFTRASEDLKTHMVVANTMEDFQKILDSGKIVQIPFCGEIDCEDWIKKTTARDQDLEPGAPSMGAKSLCITFKPLCELQPGAKCVCGKNPAKYYTLFGRSY | 2
